# Laboratory results published in IntAct's records for PubMed 30285739.
# B1: WW domain binding protein VOPP1 (Homo sapiens), Q96AW1 (parent)
# chain: MRRQPAKVAALLLGLLLECTEAKKHCWYFEGLYPTYYICRSYEDCCGSRCCVRALSIQRLWYFWFLLMMGVLFCCGAGFFIRRRMYPPPLIEEPAFNVSYTRQPPNPGPGAQQPGPPYYTDPGGPGMNPVGNSMAMAFQVPPNSPQGSVACPPPPAYCNTPPPPYEQVVKAK
# partner: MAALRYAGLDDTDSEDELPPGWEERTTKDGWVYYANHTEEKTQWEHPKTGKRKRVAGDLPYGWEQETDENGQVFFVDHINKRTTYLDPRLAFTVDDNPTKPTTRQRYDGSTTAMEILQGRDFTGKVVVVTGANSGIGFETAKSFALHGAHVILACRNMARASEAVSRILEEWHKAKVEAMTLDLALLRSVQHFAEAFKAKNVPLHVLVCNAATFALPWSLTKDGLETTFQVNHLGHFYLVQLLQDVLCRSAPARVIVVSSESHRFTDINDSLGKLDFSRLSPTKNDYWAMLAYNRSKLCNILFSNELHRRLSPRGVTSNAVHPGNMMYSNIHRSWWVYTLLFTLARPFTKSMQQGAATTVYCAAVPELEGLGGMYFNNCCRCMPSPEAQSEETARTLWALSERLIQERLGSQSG
# B2: WW domain-containing oxidoreductase (Homo sapiens), Q9NZC7 (parent)
# chain: B1 partner
# partner: B1 chain
# Variants of: B1
# Settings: with wwox_human WWOX, Q9NZC7
row,Variant,effect of a mutation on the interaction
1,Y165A,decreasing interaction strength
2,Y119A,with no effect
3,Y157A,decreasing interaction strength

# Variants of: B1
# Settings: with wwox_human WWOX
row,Variant,effect of a mutation on the interaction
1,Y165A,disrupting interaction strength

# Variants of: B2
# Settings: with vopp1_human VOPP1, Q96AW1
row,Variant,effect of a mutation on the interaction
1,Y33R,disrupting interaction strength
